Test results: US20240034815A1 (Xencor, published 2024)

B1: XENP21971_GPC3-A_H1_L1 (bispecific antibody)
heavy: QVQLVQSGAEVKKPGASVKVSCKASGYTFTDYEMHWVRQAPGQGLEWMGALDPKTGDTAYSQKFQGRVTMTADKSISTAYMELSRLRSDDTAVYYCTRFYSYTYWGQGTLVTVSSASTKGPSVFPLAPSSKSTSGGTAALGCLVKDYFPEPVTVSWNSGALTSGVHTFPAVLQSSGLYSLSSVVTVPSSSLGTQTYICNVNHKPSDTKVDKKVEPKSCDKTHTCPPCPAPPVAGPSVFLFPPKPKDTLMISRTPEVTCVVVDVKHEDPEVKFNWYVDGVEVHNAKTKPREEEYNSTYRVVSVLTVLHQDWLNGKEYKCKVSNKALPAPIEKTISKAKGQPREPQVYTLPPSREEMTKNQVSLTCDVSGFYPSDIAVEWESDGQPENNYKTTPPVLDSDGSFFLYSKLTVDKSRWEQGDVFSCSVMHEALHNHYTQKSLSLSPGK
scFv-Fc: not shown
light: DVVMTQSPLSLPVTLGQPASISCRSSQSLVHSNGNTYLHWYQQRPGQSPRLLIYKVSNRFSGVPDRFSGSGSGTDFTLKISRVEAEDVGVYFCSQNTHVPPTFGSGTKLEIKRTVAAPSVFIFPPSDEQLKSGTASVVCLLNNFYPREAKVQWKVDNALQSGNSQESVTEQDSKDSTYSLSSTLTLSKADYEKHKVYACEVTHQGLSSPVTKSFNRGEC
notes: the sheet prints H1_L1; copies: 1 + 1 + 1
B2: XENP36936 H1.1_L1.70 (bispecific antibody)
heavy: QVQLVQSGAEVKKPGASVKVSCKASGYTFTDYEMHWVRQAPGQGLEWMGALEPKTGDTAYSQKFQGRVTMTADKSISTAYMELSRLRSDDTAVYYCTRFYSYTYWGQGTLVTVSSASTKGPSVFPLAPSSKSTSGGTAALGCLVKDYFPEPVTVSWNSGALTSGVHTFPAVLQSSGLYSLSSVVTVPSSSLGTQTYICNVNHKPSDTKVDKKVEPKSCDKTHTCPPCPAPPVAGPSVFLFPPKPKDTLMISRTPEVTCVVVDVKHEDPEVKFNWYVDGVEVHNAKTKPREEEYNSTYRVVSVLTVLHQDWLNGKEYKCKVSNKALPAPIEKTISKAKGQPREPQVYTLPPSREEMTKNQVSLTCDVSGFYPSDIAVEWESDGQPENNYKTTPPVLDSDGSFFLYSKLTVDKSRWEQGDVFSCSVMHEALHNHYTQKSLSLSPGK
scFv-Fc: not shown
light: DVVMTQSPLSLPVTLGQPASISCRSSQSLVHSNKNTYLHWYQQRPGQSPRLLIYQVSNRFSGVPDRFSGSGSGTDFTLKISRVEAEDVGVYFCSQNTHVPPTFGSGTKLEIKRTVAAPSVFIFPPSDEQLKSGTASVVCLLNNFYPREAKVQWKVDNALQSGNSQESVTEQDSKDSTYSLSSTLTLSKADYEKHKVYACEVTHQGLSSPVTKSFNRGEC
notes: also called [GPC3]H1.1_L1.70; VL G29K K50Q; copies: 1 + 1 + 1
B3: XENP34365_GPC3-A_H1.1__L1.16 (bispecific antibody)
heavy: QVQLVQSGAEVKKPGASVKVSCKASGYTFTDYEMHWVRQAPGQGLEWMGALEPKTGDTAYSQKFQGRVTMTADKSISTAYMELSRLRSDDTAVYYCTRFYSYTYWGQGTLVTVSSASTKGPSVFPLAPSSKSTSGGTAALGCLVKDYFPEPVTVSWNSGALTSGVHTFPAVLQSSGLYSLSSVVTVPSSSLGTQTYICNVNHKPSDTKVDKKVEPKSCDKTHTCPPCPAPPVAGPSVFLFPPKPKDTLMISRTPEVTCVVVDVKHEDPEVKFNWYVDGVEVHNAKTKPREEEYNSTYRVVSVLTVLHQDWLNGKEYKCKVSNKALPAPIEKTISKAKGQPREPQVYTLPPSREEMTKNQVSLTCDVSGFYPSDIAVEWESDGQPENNYKTTPPVLDSDGSFFLYSKLTVDKSRWEQGDVFSCSVMHEALHNHYTQKSLSLSPGK
scFv-Fc: not shown
light: DVVMTQSPLSLPVTLGQPASISCRSSQSLVHSSGNTYLHWYQQRPGQSPRLLIYKVSNRFSGVPDRFSGSGSGTDFTLKISRVEAEDVGVYFCSQSTHVPPTFGSGTKLEIKRTVAAPSVFIFPPSDEQLKSGTASVVCLLNNFYPREAKVQWKVDNALQSGNSQESVTEQDSKDSTYSLSSTLTLSKADYEKHKVYACEVTHQGLSSPVTKSFNRGEC
notes: Another XENP number than XENP35843, which has the same GPC3 Fv
B4: XENP36933 H1.1_L1.67 (bispecific antibody)
heavy: QVQLVQSGAEVKKPGASVKVSCKASGYTFTDYEMHWVRQAPGQGLEWMGALEPKTGDTAYSQKFQGRVTMTADKSISTAYMELSRLRSDDTAVYYCTRFYSYTYWGQGTLVTVSSASTKGPSVFPLAPSSKSTSGGTAALGCLVKDYFPEPVTVSWNSGALTSGVHTFPAVLQSSGLYSLSSVVTVPSSSLGTQTYICNVNHKPSDTKVDKKVEPKSCDKTHTCPPCPAPPVAGPSVFLFPPKPKDTLMISRTPEVTCVVVDVKHEDPEVKFNWYVDGVEVHNAKTKPREEEYNSTYRVVSVLTVLHQDWLNGKEYKCKVSNKALPAPIEKTISKAKGQPREPQVYTLPPSREEMTKNQVSLTCDVSGFYPSDIAVEWESDGQPENNYKTTPPVLDSDGSFFLYSKLTVDKSRWEQGDVFSCSVMHEALHNHYTQKSLSLSPGK
scFv-Fc: not shown
light: DVVMTQSPLSLPVTLGQPASISCRSSQSLVHSNKNTWLHWYQQRPGQSPRLLIYKVSNRFSGVPDRFSGSGSGTDFTLKISRVEAEDVGVYFCSQNTHVPPTFGSGTKLEIKRTVAAPSVFIFPPSDEQLKSGTASVVCLLNNFYPREAKVQWKVDNALQSGNSQESVTEQDSKDSTYSLSSTLTLSKADYEKHKVYACEVTHQGLSSPVTKSFNRGEC
notes: also called [GPC3]H1.1_L1.67; VL G29K Y32W; copies: 1 + 1 + 1
B5: XENP34364_GPC3-A_H1.1__L1.29 (bispecific antibody)
heavy: QVQLVQSGAEVKKPGASVKVSCKASGYTFTDYEMHWVRQAPGQGLEWMGALEPKTGDTAYSQKFQGRVTMTADKSISTAYMELSRLRSDDTAVYYCTRFYSYTYWGQGTLVTVSSASTKGPSVFPLAPSSKSTSGGTAALGCLVKDYFPEPVTVSWNSGALTSGVHTFPAVLQSSGLYSLSSVVTVPSSSLGTQTYICNVNHKPSDTKVDKKVEPKSCDKTHTCPPCPAPPVAGPSVFLFPPKPKDTLMISRTPEVTCVVVDVKHEDPEVKFNWYVDGVEVHNAKTKPREEEYNSTYRVVSVLTVLHQDWLNGKEYKCKVSNKALPAPIEKTISKAKGQPREPQVYTLPPSREEMTKNQVSLTCDVSGFYPSDIAVEWESDGQPENNYKTTPPVLDSDGSFFLYSKLTVDKSRWEQGDVFSCSVMHEALHNHYTQKSLSLSPGK
scFv-Fc: not shown
light: DVVMTQSPLSLPVTLGQPASISCRSSQSLVHSNGNTYLHWYQQRPGQSPRLLIYQVSNRFSGVPDRFSGSGSGTDFTLKISRVEAEDVGVYFCSQNTHVPPTFGSGTKLEIKRTVAAPSVFIFPPSDEQLKSGTASVVCLLNNFYPREAKVQWKVDNALQSGNSQESVTEQDSKDSTYSLSSTLTLSKADYEKHKVYACEVTHQGLSSPVTKSFNRGEC
notes: Another XENP number than XENP36941, which has the same GPC3 Fv
B6: XENP36934 H1.1_L1.68 (bispecific antibody)
heavy: QVQLVQSGAEVKKPGASVKVSCKASGYTFTDYEMHWVRQAPGQGLEWMGALEPKTGDTAYSQKFQGRVTMTADKSISTAYMELSRLRSDDTAVYYCTRFYSYTYWGQGTLVTVSSASTKGPSVFPLAPSSKSTSGGTAALGCLVKDYFPEPVTVSWNSGALTSGVHTFPAVLQSSGLYSLSSVVTVPSSSLGTQTYICNVNHKPSDTKVDKKVEPKSCDKTHTCPPCPAPPVAGPSVFLFPPKPKDTLMISRTPEVTCVVVDVKHEDPEVKFNWYVDGVEVHNAKTKPREEEYNSTYRVVSVLTVLHQDWLNGKEYKCKVSNKALPAPIEKTISKAKGQPREPQVYTLPPSREEMTKNQVSLTCDVSGFYPSDIAVEWESDGQPENNYKTTPPVLDSDGSFFLYSKLTVDKSRWEQGDVFSCSVMHEALHNHYTQKSLSLSPGK
scFv-Fc: not shown
light: DVVMTQSPLSLPVTLGQPASISCRSSQSLVHSYGNTYLHWYQQRPGQSPRLLIYQVSNRFSGVPDRFSGSGSGTDFTLKISRVEAEDVGVYFCSQNTHVPPTFGSGTKLEIKRTVAAPSVFIFPPSDEQLKSGTASVVCLLNNFYPREAKVQWKVDNALQSGNSQESVTEQDSKDSTYSLSSTLTLSKADYEKHKVYACEVTHQGLSSPVTKSFNRGEC
notes: also called [GPC3]H1.1_L1.68; VL N28Y K50Q; copies: 1 + 1 + 1
B7: XENP34368_GPC3-A_H1.1__L1.31 (bispecific antibody)
heavy: QVQLVQSGAEVKKPGASVKVSCKASGYTFTDYEMHWVRQAPGQGLEWMGALEPKTGDTAYSQKFQGRVTMTADKSISTAYMELSRLRSDDTAVYYCTRFYSYTYWGQGTLVTVSSASTKGPSVFPLAPSSKSTSGGTAALGCLVKDYFPEPVTVSWNSGALTSGVHTFPAVLQSSGLYSLSSVVTVPSSSLGTQTYICNVNHKPSDTKVDKKVEPKSCDKTHTCPPCPAPPVAGPSVFLFPPKPKDTLMISRTPEVTCVVVDVKHEDPEVKFNWYVDGVEVHNAKTKPREEEYNSTYRVVSVLTVLHQDWLNGKEYKCKVSNKALPAPIEKTISKAKGQPREPQVYTLPPSREEMTKNQVSLTCDVSGFYPSDIAVEWESDGQPENNYKTTPPVLDSDGSFFLYSKLTVDKSRWEQGDVFSCSVMHEALHNHYTQKSLSLSPGK
scFv-Fc: not shown
light: DVVMTQSPLSLPVTLGQPASISCRSSQSLVHSNGNTYLHWYQQRPGQSPRLLIYYVSNRFSGVPDRFSGSGSGTDFTLKISRVEAEDVGVYFCSQNTHVPPTFGSGTKLEIKRTVAAPSVFIFPPSDEQLKSGTASVVCLLNNFYPREAKVQWKVDNALQSGNSQESVTEQDSKDSTYSLSSTLTLSKADYEKHKVYACEVTHQGLSSPVTKSFNRGEC
notes: Another XENP number than XENP36140, which has the same GPC3 Fv; copies: 1 + 1 + 1

Tests used:
His-tagged human GPC3 [1] = biological target: T1, His-tagged human GPC3 (human, UniProt P51654 25-559, limits assumed); assay: Octet (BLI), His-tagged GPC3 captured on HIS1K sensors, bsAb as analyte
T1 construct: Captured on HIS1K sensors in the Octet assay; also called human GPC3 antigen; Glypican 3; not shown: His tag
Protocol: (§1) After humanization, GPC3 binding arms were engineered with single point mutations in the variable light domain with the aim to create a ladder of GPC3 binding affinity, illustrative sequences for which are depicted in FIG. 13. 73 variable light domain variants were engineered and paired with GPC3-A H1.1 (see Example 3C for description of GPC3-A H1.1 variant). The GPC3-A variants were engineered in the 1+1 Fab-scFv-Fc bsAb format and binding for GPC3 antigen was measured using Octet, a BioLayer Interferometry (BLI)-based method. Experimental steps for Octet generally include the following: Immobilization (capture of ligand to a biosensor); Association (dipping of ligand-coated biosensors into wells containing the analyte); and Dissociation (returning of biosensors to well containing buffer). For ease of clinical development (e.g. by investigating the therapeutics in model animals), it is useful for the binding domains to be cross-reactive for cynomolgus antigen; therefore, binding to both human and cynomolgus GPC3 antigen were investigated. His-tagged human and cynomolgus GPC3 were captured on HIS1K sensors then dipped into multiple concentrations of the bispecific antibodies. The resulting dissociation constant (KD) are depicted in FIG. 23.

[2] = biological target: T2, His-tagged cynomolgus GPC3 (cynomolgus, UniProt A0A2K5VK50 24-558); assay: as above
T2 construct: Captured on HIS1K sensors in the Octet assay; also called cynomolgus GPC3 antigen; cyno GPC3; not shown: His tag
Protocol: as §1

His-tagged human GPC3 [3] = biological target: T1, His-tagged human GPC3; assay: binding assay not named for this figure; Octet (BLI) is the method of Example 2B
Protocol: as §1

[4] = biological target: T2, His-tagged cynomolgus GPC3; assay: as above
Protocol: as §1

T1 sequence (P51654 25-559 limits assumed): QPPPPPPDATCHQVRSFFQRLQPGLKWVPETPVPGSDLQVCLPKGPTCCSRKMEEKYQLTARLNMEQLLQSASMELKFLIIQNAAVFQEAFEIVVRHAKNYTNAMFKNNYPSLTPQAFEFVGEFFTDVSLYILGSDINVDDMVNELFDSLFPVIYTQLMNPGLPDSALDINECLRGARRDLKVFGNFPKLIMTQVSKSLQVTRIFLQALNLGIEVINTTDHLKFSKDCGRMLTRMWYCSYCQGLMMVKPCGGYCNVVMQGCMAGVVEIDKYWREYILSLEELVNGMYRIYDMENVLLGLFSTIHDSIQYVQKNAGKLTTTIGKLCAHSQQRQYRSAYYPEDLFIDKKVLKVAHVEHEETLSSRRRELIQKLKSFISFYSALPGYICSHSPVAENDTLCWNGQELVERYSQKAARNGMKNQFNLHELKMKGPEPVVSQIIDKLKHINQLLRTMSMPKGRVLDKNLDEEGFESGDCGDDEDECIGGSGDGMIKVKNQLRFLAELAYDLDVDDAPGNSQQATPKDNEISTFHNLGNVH

Binder	Kd (His-tagged human GPC3 [1]) [nM]	Kd [2] [nM]	Kd (His-tagged human GPC3 [3]) [nM]	Kd [4] [nM]
B1	4	4		
B2			130	130
B3	93	100		
B4			550	600
B5	70	73		
B6			370	370
B7	464	485		
